Here are results for 31 molecules from paper PMC6555819, “Comprehensive study of nuclear receptor DNA binding provides a revised framework for understanding receptor specificity”.

B1: NRC3_wobSeed110_DR4_A18T_o1 (dsDNA)
DNA 1: GCTCTGCTAGGTCAACGTTGGTCAGCTAATCTGCTAGCGATTGACAGCGTAGAATGAAGG
DNA 2: CCTTCATTCTACGCTGTCAATCGCTAGCAGATTAGCTGACCAACGTTGACCTAGCAGAGC
B2: NRC3_wobSeed99_DR4_C13A_o1 (dsDNA)
DNA 1: GCTCTCGGAGGAAACGAAAGGTCAGAGCTCGACATCGCGATTGACAGCGTAGAATGAAGG
DNA 2: CCTTCATTCTACGCTGTCAATCGCGATGTCGAGCTCTGACCTTTCGTTTCCTCCGAGAGC
B3: NRC3_wobSeed104_DR4_A14G_o1 (dsDNA)
DNA 1: GCTCTTGTAGATCGATAGAGGTTAAGAAAGTGCGCTGCGATTGACAGCGTAGAATGAAGG
DNA 2: CCTTCATTCTACGCTGTCAATCGCAGCGCACTTTCTTAACCTCTATCGATCTACAAGAGC
B4: NRC3_wobSeed141_DR5_G21C_o1 (dsDNA)
DNA 1: GCAGTCAAAGTTCAGGACGACGTAACGTAAAGCACGGCGATTGACAGCGTAGAATGAAGG
DNA 2: CCTTCATTCTACGCTGTCAATCGCCGTGCTTTACGTTACGTCGTCCTGAACTTTGACTGC
B5: NRC3_wobSeed64_DR2_A4T_o1 (dsDNA)
DNA 1: GCTTGCCTAGGTCATTGGGCCAGTATAGTACGCATCGCGATTGACAGCGTAGAATGAAGG
DNA 2: CCTTCATTCTACGCTGTCAATCGCGATGCGTACTATACTGGCCCAATGACCTAGGCAAGC
B6: NRC3_wobSeed135_DR5_G26A_o1 (dsDNA)
DNA 1: GCCGAACTAGGTCATTGACAGGACAATGAATAGTAAGCGATTGACAGCGTAGAATGAAGG
DNA 2: CCTTCATTCTACGCTGTCAATCGCTTACTATTCATTGTCCTGTCAATGACCTAGTTCGGC
B7: NRC3_wobSeed61_DR2_A17G_o1 (dsDNA)
DNA 1: GCCGTCCAAGGTCAGCGGGTCAGTGAAAGCGACGTGGCGATTGACAGCGTAGAATGAAGG
DNA 2: CCTTCATTCTACGCTGTCAATCGCCACGTCGCTTTCACTGACCCGCTGACCTTGGACGGC
B8: NRC3_wobSeed65_DR2_G11T_o1 (dsDNA)
DNA 1: GCATATGTAGTTTATCGGGTCATTCAGTTTGCGCATGCGATTGACAGCGTAGAATGAAGG
DNA 2: CCTTCATTCTACGCTGTCAATCGCATGCGCAAACTGAATGACCCGATAAACTACATATGC
B9: NRC3_wobSeed65_DR2_T24A_o1 (dsDNA)
DNA 1: GCATATGTAGGTTATCGGGTCATACAGTTTGCGCATGCGATTGACAGCGTAGAATGAAGG
DNA 2: CCTTCATTCTACGCTGTCAATCGCATGCGCAAACTGTATGACCCGATAACCTACATATGC
B10: NRC3_wobSeed88_DR3_G24A_o1 (dsDNA)
DNA 1: GCTAGCCTAGGTCATGCGGGCCAATATAGTGTCGGCGCGATTGACAGCGTAGAATGAAGG
DNA 2: CCTTCATTCTACGCTGTCAATCGCGCCGACACTATATTGGCCCGCATGACCTAGGCTAGC
B11: NRC3_wobSeed124_DR5_T26A_o1 (dsDNA)
DNA 1: GCCCTACTGGGCCATTCAGAGGTCAATGATCATATGGCGATTGACAGCGTAGAATGAAGG
DNA 2: CCTTCATTCTACGCTGTCAATCGCCATATGATCATTGACCTCTGAATGGCCCAGTAGGGC
B12: NRC3_wobSeed124_DR5_A14G_o1 (dsDNA)
DNA 1: GCCCTACTGGGCCGTTCAGAGGTCATTGATCATATGGCGATTGACAGCGTAGAATGAAGG
DNA 2: CCTTCATTCTACGCTGTCAATCGCCATATGATCAATGACCTCTGAACGGCCCAGTAGGGC
B13: NRC3_wobSeed82_DR3_G17C_o1 (dsDNA)
DNA 1: GCATCGAAAGGTCGACCAGGTGAGTATACACCGTTTGCGATTGACAGCGTAGAATGAAGG
DNA 2: CCTTCATTCTACGCTGTCAATCGCAAACGGTGTATACTCACCTGGTCGACCTTTCGATGC
B14: NRC3_wobSeed75_DR3_G16A_o1 (dsDNA)
DNA 1: GCTCTCGGAGGACACAAAGGTCAGAGCTTTCCAGAGGCGATTGACAGCGTAGAATGAAGG
DNA 2: CCTTCATTCTACGCTGTCAATCGCCTCTGGAAAGCTCTGACCTTTGTGTCCTCCGAGAGC
B15: NRC3_wobSeed74_DR3_C26A_o1 (dsDNA)
DNA 1: GCTCTAGTTGGTCACGGAGGTCACAAACGACGGGTAGCGATTGACAGCGTAGAATGAAGG
DNA 2: CCTTCATTCTACGCTGTCAATCGCTACCCGTCGTTTGTGACCTCCGTGACCAACTAGAGC
B16: NRC3_wobSeed138_DR5_C7T_o1 (dsDNA)
DNA 1: GCGATATAGGGTCAGCTAGAGGCCAGAGTATGGAAAGCGATTGACAGCGTAGAATGAAGG
DNA 2: CCTTCATTCTACGCTGTCAATCGCTTTCCATACTCTGGCCTCTAGCTGACCCTATATCGC
B17: NRC3_wobSeed87_DR3_A21T_o1 (dsDNA)
DNA 1: GCCGAACTAGGTCATCCAGGTCAGTGAATACATTGAGCGATTGACAGCGTAGAATGAAGG
DNA 2: CCTTCATTCTACGCTGTCAATCGCTCAATGTATTCACTGACCTGGATGACCTAGTTCGGC
B18: NRC3_wobSeed5_DR0_A25C_o1 (dsDNA)
DNA 1: GCCCTTACGGGTCAAGGTTATAGCCCGGGTGGTACGGCGATTGACAGCGTAGAATGAAGG
DNA 2: CCTTCATTCTACGCTGTCAATCGCCGTACCACCCGGGCTATAACCTTGACCCGTAAGGGC
B19: NRC3_wobSeed128_DR5_G27T_o1 (dsDNA)
DNA 1: GCTCTTGTAGATCAACAGGAGGTTAATAAAGATCGAGCGATTGACAGCGTAGAATGAAGG
DNA 2: CCTTCATTCTACGCTGTCAATCGCTCGATCTTTATTAACCTCCTGTTGATCTACAAGAGC
B20: NRC3_wobSeed4_DR0_G11T_o1 (dsDNA)
DNA 1: GCCCTACTGGTCCAAGGTCATTGATCAGTCAAAGCAGCGATTGACAGCGTAGAATGAAGG
DNA 2: CCTTCATTCTACGCTGTCAATCGCTGCTTTGACTGATCAATGACCTTGGACCAGTAGGGC
B21: NRC3_wobSeed4_DR0_G11A_o1 (dsDNA)
DNA 1: GCCCTACTGGACCAAGGTCATTGATCAGTCAAAGCAGCGATTGACAGCGTAGAATGAAGG
DNA 2: CCTTCATTCTACGCTGTCAATCGCTGCTTTGACTGATCAATGACCTTGGTCCAGTAGGGC
B22: NRC3_wobSeed40_DR1_A24G_o1 (dsDNA)
DNA 1: GCTAGCCTAGGTCATGGGCCAGTGTACCACGCGAACGCGATTGACAGCGTAGAATGAAGG
DNA 2: CCTTCATTCTACGCTGTCAATCGCGTTCGCGTGGTACACTGGCCCATGACCTAGGCTAGC
B23: NRC3_wobSeed40_DR1_A4C_o1 (dsDNA)
DNA 1: GCTCGCCTAGGTCATGGGCCAGTATACCACGCGAACGCGATTGACAGCGTAGAATGAAGG
DNA 2: CCTTCATTCTACGCTGTCAATCGCGTTCGCGTGGTATACTGGCCCATGACCTAGGCGAGC
B24: NRC3_wobSeed20_DR0_A17T_o1 (dsDNA)
DNA 1: GCAGAATGAGGTTAAGTTCAGGGAAACAGAATACATGCGATTGACAGCGTAGAATGAAGG
DNA 2: CCTTCATTCTACGCTGTCAATCGCATGTATTCTGTTTCCCTGAACTTAACCTCATTCTGC
B25: NRC3_wobSeed134_DR5_G26T_o1 (dsDNA)
DNA 1: GCGCTGCTAGGTCAACTGATGGTCATCTAAAGCTCGGCGATTGACAGCGTAGAATGAAGG
DNA 2: CCTTCATTCTACGCTGTCAATCGCCGAGCTTTAGATGACCATCAGTTGACCTAGCAGCGC
B26: NRC3_wobSeed140_DR5_T15A_o1 (dsDNA)
DNA 1: GCAGAATGAGGTTAAACGTAGATCAGGGAAGAAAGTGCGATTGACAGCGTAGAATGAAGG
DNA 2: CCTTCATTCTACGCTGTCAATCGCACTTTCTTCCCTGATCTACGTTTAACCTCATTCTGC
B27: NRC3_wobSeed2_DR0_T5G_o1 (dsDNA)
DNA 1: GCCCGAGTTGGTCAAGGTCACACACGCTATAGGTACGCGATTGACAGCGTAGAATGAAGG
DNA 2: CCTTCATTCTACGCTGTCAATCGCGTACCTATAGCGTGTGTGACCTTGACCAACTCGGGC
B28: NRC3_wobSeed2_DR0_A24C_o1 (dsDNA)
DNA 1: GCCCTAGTTGGTCAAGGTCACACCCGCTATAGGTACGCGATTGACAGCGTAGAATGAAGG
DNA 2: CCTTCATTCTACGCTGTCAATCGCGTACCTATAGCGGGTGTGACCTTGACCAACTAGGGC
B29: NRC3_wobSeed2_DR0_C23T_o1 (dsDNA)
DNA 1: GCCCTAGTTGGTCAAGGTCACATACGCTATAGGTACGCGATTGACAGCGTAGAATGAAGG
DNA 2: CCTTCATTCTACGCTGTCAATCGCGTACCTATAGCGTATGTGACCTTGACCAACTAGGGC
B30: NRC3_wobSeed123_DR5_G26T_o1 (dsDNA)
DNA 1: GCCCTCGGAGGACAACAGGAGGTCATAGCTGCCAGAGCGATTGACAGCGTAGAATGAAGG
DNA 2: CCTTCATTCTACGCTGTCAATCGCTCTGGCAGCTATGACCTCCTGTTGTCCTCCGAGGGC
B31: NRC3_wobSeed34_DR1_T23C_o1 (dsDNA)
DNA 1: GCATCGAAAGGTCGAAGGTGAGCATACCCACCCGAAGCGATTGACAGCGTAGAATGAAGG
DNA 2: CCTTCATTCTACGCTGTCAATCGCTTCGGGTGGGTATGCTCACCTTCGACCTTTCGATGC

LXRa:RXRa, sequence (Q13133 whole entry, chain 1 of 2): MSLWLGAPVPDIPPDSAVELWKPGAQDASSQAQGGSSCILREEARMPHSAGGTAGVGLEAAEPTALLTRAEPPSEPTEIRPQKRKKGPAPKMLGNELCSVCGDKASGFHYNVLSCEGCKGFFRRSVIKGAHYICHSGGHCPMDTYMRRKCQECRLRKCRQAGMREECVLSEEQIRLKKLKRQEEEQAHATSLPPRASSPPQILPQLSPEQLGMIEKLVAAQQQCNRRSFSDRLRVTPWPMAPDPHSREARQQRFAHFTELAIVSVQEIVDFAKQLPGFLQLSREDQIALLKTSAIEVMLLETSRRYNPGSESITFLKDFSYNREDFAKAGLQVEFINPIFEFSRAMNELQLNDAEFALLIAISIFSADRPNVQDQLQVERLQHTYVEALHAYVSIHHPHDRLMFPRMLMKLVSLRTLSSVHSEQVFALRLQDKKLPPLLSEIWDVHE
LXRa:RXRa, sequence (P19793 whole entry, chain 2 of 2): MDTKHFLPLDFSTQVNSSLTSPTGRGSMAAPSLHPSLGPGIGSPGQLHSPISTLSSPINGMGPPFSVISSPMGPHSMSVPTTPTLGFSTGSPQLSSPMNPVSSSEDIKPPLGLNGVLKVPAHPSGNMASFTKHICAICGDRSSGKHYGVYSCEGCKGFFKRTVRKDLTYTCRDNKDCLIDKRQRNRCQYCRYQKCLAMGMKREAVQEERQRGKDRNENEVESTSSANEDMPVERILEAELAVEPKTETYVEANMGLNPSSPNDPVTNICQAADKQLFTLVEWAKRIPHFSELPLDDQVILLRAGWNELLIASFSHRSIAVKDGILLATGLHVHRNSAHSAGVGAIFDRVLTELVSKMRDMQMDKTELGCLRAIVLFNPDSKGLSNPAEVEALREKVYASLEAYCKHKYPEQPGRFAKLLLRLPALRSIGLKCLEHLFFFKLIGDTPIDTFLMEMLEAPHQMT

This data set deals with LXRa:RXRa (Homo sapiens, UniProt Q13133;P19793 full;full). The data set is described as follows: no ligand; PBM; 270 nM : 90 nM RXRa; PBS pH 7.4, 2% milk, 0.02% Triton X-100, 1 mM DTT, BSA, 0.4 mg/ml salmon testes DNA. Conditions: tags: His kept;His cleaved; copies: 1;1; label: surface-attached array probe. In short, it runs like this:
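On custom Agilent 4×180K arrays, double-stranded probes with 34-nt variable regions carried direct-repeat seeds, single-nucleotide variants, half-site ablations or random human genomic background. Ligand-free nuclear receptor dimers were applied for 1 h, and binding was read with antibodies against each partner (one per run). Binding z-scores come from regression-normalized fluorescence, with the random background probes as reference.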
On to B1, for which the binding signal is 3.08 PBM z-score against 500 random probes. As for B2, the binding signal is 3.75 PBM z-score against 500 random probes.

For B3, the binding signal was 3.15 PBM z-score against 500 random probes. Take B4: the binding signal is 3.38 PBM z-score against 500 random probes. In the case of B5 it was 3.21 PBM z-score against 500 random probes.

For the molecule B6, the binding signal was 3.59 PBM z-score against 500 random probes. Turning to B7, the binding signal is 3.86 PBM z-score against 500 random probes.

For B8, the binding signal was 3.34 PBM z-score against 500 random probes. As to B9, the binding signal was 3.1 PBM z-score against 500 random probes.

Regarding B10, the binding signal was 3.29 PBM z-score against 500 random probes. The same measure for B11: 3.77 PBM z-score against 500 random probes; for B12: 3.51 PBM z-score against 500 random probes.

For B13, the binding signal is 3.67 PBM z-score against 500 random probes. Turning to B14, the binding signal is 3.54 PBM z-score against 500 random probes. In the case of B15, the binding signal is 3.23 PBM z-score against 500 random probes. On to B16, for which the binding signal is 3.06 PBM z-score against 500 random probes. In the case of B17 it was 3.37 PBM z-score against 500 random probes; in that of B18, 3.64 PBM z-score against 500 random probes; in that of B19, 3.26 PBM z-score against 500 random probes. B20: the binding signal is 3.7 PBM z-score against 500 random probes. As for B21, the binding signal was 3.62 PBM z-score against 500 random probes. Consider B22, for which the binding signal was 3.31 PBM z-score against 500 random probes. Take B23: the binding signal was 3.18 PBM z-score against 500 random probes. B24: the binding signal was 3.43 PBM z-score against 500 random probes. In the case of B25 it was 3.56 PBM z-score against 500 random probes. In the case of B26 it was 3.17 PBM z-score against 500 random probes. The same measure for B27: 3.9 PBM z-score against 500 random probes; for B28: 3.48 PBM z-score against 500 random probes. On to B29, for which the binding signal was 3.72 PBM z-score against 500 random probes. B30: the binding signal was 3.93 PBM z-score against 500 random probes. Take B31: the binding signal is 3.46 PBM z-score against 500 random probes.
